Test results from the supplement of paper PMC7877785.
± gives the uncertainty stated by the source.

Assay: self-splicing fitness, log relative to wild type (ln ratio); higher = more splicing; Tetrahymena group I intron in knt gene, E. coli kanamycin selection, DiMSum; sequences stand for … in CUCUCU…GGAGGGAAAAGUUAUCAGGCAUGCACCUGGUAGCUAGUCUUUAAACCAAUAGAUUGCAUCGGUUUAAAAGGCAAGACCGUCAAAUUGCGGGAAAGGGGUCAACAGCCGUUCAGUACCAAGUCUCAGGGGAAACUUUGAGAUGGCCUUGCAAAGGGUAUGGUAAUAAGCUGACGGACAUGGUCCUAACCACGCAGCCAAGUCCUAAGUCAACAGAUCUUCUGUUGAUAUGGAUGCAGUUCACAGACUAAAUGUCGGUCGGGGAAGAUGUAUUCUUCUCAUAAGAUAUAGUCGGACCUCUCCUUAAUGGGAGCUAGCGGAUGAAGUGAUGCAACACUGGAGCCGCUGGGAACUAAUUUGUAUGCGAAAGUAUAUUGAUUAGUUUUGGAGUACUCGUGGUCG
Outline: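 Colonies from six replicate transformations of E. coli BL21(DE3) were pooled and amplicon-sequenced on an Illumina HiSeq 2500. The library placed an intron with all eight P1ex-region nucleotides randomised inside the knt kanamycin-resistance gene on pET-22b(+), and cells grew overnight at 37°C or 30°C on LB agar with or without 25 μg/mL kanamycin (plus 100 μg/mL carbenicillin, 50 μM IPTG, 0.2% rhamnose). Fitness is the DiMSum error-weighted combination of wild-type-normalised replicate fold changes, kanamycin versus none.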

Row | Sequence | self-splicing fitness (ln) (37 °C) | self-splicing fitness (ln) (30 °C)
1 | UAGUAGCAAUAUUACGUUGC | -1.53 ± 0.44 | 
2 | ACACAGCAAUAUUACGGAGA | -2.23 ± 0.14 | -4.21 ± 0.21
3 | GGCAAGCAAUAUUACGGAGC | 0.0393 ± 0.25 | -1.36 ± 0.2
4 | UCAAAGCAAUAUUACGUGUC | -1.69 ± 0.19 | -3.25 ± 0.22
5 | UAUGAGCAAUAUUACGCAAC | -2.49 ± 0.44 | -2.22 ± 0.32
6 | CAUCAGCAAUAUUACGCAUG | -2.23 ± 0.13 | -2.03 ± 0.11
7 | UAAGAGCAAUAUUACGGCGU | -2.39 ± 0.31 | -1.79 ± 0.13
8 | AAUUAGCAAUAUUACGUGCC | -0.857 ± 0.11 | -1.48 ± 0.082
9 | ACCGAGCAAUAUUACGACUU | -0.353 ± 0.11 | -1.12 ± 0.087
10 | UCCGAGCAAUAUUACGCAUA | -2.26 ± 0.35 | -2.24 ± 0.42
11 | UGGUAGCAAUAUUACGUUAG | -0.599 ± 0.072 | -1.9 ± 0.067
12 | ACUUAGCAAUAUUACGGACU | 0.14 ± 0.16 | -0.341 ± 0.096
13 | GACUAGCAAUAUUACGUCCC | -0.833 ± 0.22 | -1.82 ± 0.23
14 | UAUCAGCAAUAUUACGUACC | -0.91 ± 0.21 | -2.13 ± 0.18
15 | GACGAGCAAUAUUACGAGUA | -3.26 ± 0.37 | -3.81 ± 0.39
16 | GUUGAGCAAUAUUACGCUGU | -2.15 ± 0.19 | -4.02 ± 0.22
17 | AGUGAGCAAUAUUACGUUAG | -2.03 ± 0.17 | -2.97 ± 0.19
18 | CGCAAGCAAUAUUACGUACG | -0.768 ± 0.1 | -2.03 ± 0.086
19 | UUCUAGCAAUAUUACGUUAU | -2.14 ± 0.27 | -1.76 ± 0.26
20 | AUACAGCAAUAUUACGAGUC | -2.57 ± 0.19 | -3.23 ± 0.19
21 | CUGAAGCAAUAUUACGAAAU | -2.38 ± 0.25 | -3.78 ± 0.27
22 | GGCUAGCAAUAUUACGCGAA | -1.27 ± 0.08 | -1.83 ± 0.085
23 | AGUGAGCAAUAUUACGACGG | -0.814 ± 0.22 | -3.25 ± 0.28
24 | AAAUAGCAAUAUUACGCGGG | -1.23 ± 0.12 | -3.02 ± 0.19
25 | CAGUAGCAAUAUUACGAUGU | -1.65 ± 0.18 | -2.34 ± 0.16

Row | Sequence | self-splicing fitness (ln) (37 °C) | self-splicing fitness (ln) (30 °C)
26 | UUCUAGCAAUAUUACGCGAG | -1.45 ± 0.21 | -2.97 ± 0.28
27 | GGUAAGCAAUAUUACGAGGU | -2.22 ± 0.28 | -3.61 ± 0.37
28 | UUGUAGCAAUAUUACGCGCG | -0.356 ± 0.18 | -1.25 ± 0.12
29 | UGCAAGCAAUAUUACGUUUU | -3.33 ± 0.15 | -4.29 ± 0.16
30 | AGACAGCAAUAUUACGCCCC | 0.31 ± 0.26 | -0.804 ± 0.24
31 | UAUUAGCAAUAUUACGCAUU | -1.48 ± 0.17 | -2.09 ± 0.15
32 | GUAGAGCAAUAUUACGUCCG | -2.49 ± 0.49 | -2.26 ± 0.27
33 | CGUUAGCAAUAUUACGACCA | -0.925 ± 0.2 | -0.453 ± 0.17
34 | UACUAGCAAUAUUACGGCGC | -1.55 ± 0.31 | -1.6 ± 0.28
35 | GGGGAGCAAUAUUACGUAGC | -1.91 ± 0.36 | -2.01 ± 0.24
36 | CGACAGCAAUAUUACGCGCG | -1.8 ± 0.18 | -2.61 ± 0.19
37 | AAUUAGCAAUAUUACGCUGG | -1.01 ± 0.2 | -1.35 ± 0.17
38 | GCUCAGCAAUAUUACGCACG | -1.02 ± 0.24 | -3.19 ± 0.31
39 | UGUUAGCAAUAUUACGAUCC |  | -0.915 ± 0.34
40 | AAGCAGCAAUAUUACGUUUU | -2.52 ± 0.14 | -3.3 ± 0.14
41 | ACCCAGCAAUAUUACGAGGA | -1.08 ± 0.077 | -0.706 ± 0.068
42 | UUUGAGCAAUAUUACGUCUG | -0.733 ± 0.21 | -2.41 ± 0.24
43 | CUUCAGCAAUAUUACGCGGC | -1.01 ± 0.19 | -3.24 ± 0.36
44 | CCGCAGCAAUAUUACGGGAA | -2.71 ± 0.23 | -4.03 ± 0.28
45 | CAUAAGCAAUAUUACGACGA | -0.546 ± 0.11 | -2.01 ± 0.17
46 | AUCUAGCAAUAUUACGACCA | -0.302 ± 0.14 | -0.438 ± 0.12
47 | UCCUAGCAAUAUUACGUCAU | -3.37 ± 0.23 | -3.25 ± 0.13
48 | CCUAAGCAAUAUUACGCUAC | -1.53 ± 0.31 | 
49 | CCUGAGCAAUAUUACGUGUG | -1.18 ± 0.066 | -1.62 ± 0.058
50 | CAGAAGCAAUAUUACGGACA | -0.876 ± 0.13 | -1.93 ± 0.16

Row | Sequence | self-splicing fitness (ln) (37 °C) | self-splicing fitness (ln) (30 °C)
51 | UGGGAGCAAUAUUACGUAUG | -1.84 ± 0.22 | -3.01 ± 0.14
52 | UUACAGCAAUAUUACGGUAU | -0.871 ± 0.1 | -1.96 ± 0.097
53 | GUGGAGCAAUAUUACGGCGA | -1.43 ± 0.23 | -0.352 ± 0.17
54 | AGAAAGCAAUAUUACGUGUA | -0.737 ± 0.094 | -2.13 ± 0.1
55 | GUUUAGCAAUAUUACGGUGA | -0.461 ± 0.18 | -1.84 ± 0.2
56 | GGCCAGCAAUAUUACGAGGA | -1.26 ± 0.15 | 
57 | UAUCAGCAAUAUUACGAAGC | -2.09 ± 0.31 | -3.75 ± 0.36
58 | AUAUAGCAAUAUUACGUCAU | -1.15 ± 0.14 | -2.43 ± 0.14
59 | UGGAAGCAAUAUUACGGAUC | -1.54 ± 0.24 | -2.47 ± 0.34
60 | CUAAAGCAAUAUUACGCUUU | -2.35 ± 0.29 | -4.2 ± 0.33
61 | UUAUAGCAAUAUUACGGUUU | -1.09 ± 0.12 | -1.66 ± 0.1
62 | AAUAAGCAAUAUUACGCGAG | -0.557 ± 0.1 | -1.14 ± 0.097
63 | GCGGAGCAAUAUUACGGCGU | -2.08 ± 0.31 | -3.49 ± 0.33
64 | CUAGAGCAAUAUUACGUCUG | 0.417 ± 0.11 | 0.15 ± 0.094
65 | CGCUAGCAAUAUUACGGCGA | -2.3 ± 0.24 | -2.76 ± 0.28
66 | UUUCAGCAAUAUUACGGCUU | -0.047 ± 0.13 | -1.39 ± 0.13
67 | UAGAAGCAAUAUUACGCCAA | -1.39 ± 0.28 | -1.44 ± 0.29
68 | GGAUAGCAAUAUUACGCCUC |  | -2.02 ± 0.32
69 | AACAAGCAAUAUUACGCGGU | -2.03 ± 0.11 | -3.69 ± 0.14
70 | CUGCAGCAAUAUUACGAUAG | -0.167 ± 0.12 | -1.16 ± 0.11
71 | GAAUAGCAAUAUUACGGUGC | -2.78 ± 0.27 | -2.18 ± 0.22
72 | UCCAAGCAAUAUUACGGCAC | -0.668 ± 0.11 | -4.06 ± 0.29
73 | AUGCAGCAAUAUUACGGCCU | 0.0607 ± 0.16 | 0.794 ± 0.13
74 | UAGAAGCAAUAUUACGGAAU | -2.38 ± 0.36 | -2.11 ± 0.18
75 | GAUAAGCAAUAUUACGUAUA | -1.01 ± 0.11 | -1.81 ± 0.12

Row | Sequence | self-splicing fitness (ln) (37 °C) | self-splicing fitness (ln) (30 °C)
76 | UUUCAGCAAUAUUACGGCCA | -0.656 ± 0.11 | -1.3 ± 0.19
77 | UAGAAGCAAUAUUACGUUCA | 0.196 ± 0.082 | -0.483 ± 0.063
78 | AUUUAGCAAUAUUACGUCUA | 0.0394 ± 0.15 | -0.829 ± 0.15
79 | AUUCAGCAAUAUUACGUAGC | -1.43 ± 0.19 | -3.44 ± 0.26
80 | AUAUAGCAAUAUUACGGAUG | -2.15 ± 0.28 | -3.03 ± 0.25
81 | CGACAGCAAUAUUACGCGCA | -0.0102 ± 0.12 | -1.17 ± 0.13
82 | ACUCAGCAAUAUUACGCUUC | -1.48 ± 0.12 | -2.3 ± 0.094
83 | GUCGAGCAAUAUUACGCCCC | -1.01 ± 0.31 | -1.19 ± 0.37
84 | GUAGAGCAAUAUUACGUAUU | -1.42 ± 0.13 | -2.43 ± 0.12
85 | AGUCAGCAAUAUUACGACGA | -0.283 ± 0.11 | -0.25 ± 0.07
86 | GGGUAGCAAUAUUACGCGGA | -1.06 ± 0.13 | -2.64 ± 0.27
87 | GGAGAGCAAUAUUACGUCUA | -1.4 ± 0.1 | -1.23 ± 0.13
88 | GAUAAGCAAUAUUACGUCAA | -1.39 ± 0.14 | -1.66 ± 0.16
89 | UCCUAGCAAUAUUACGGUUA | -2.54 ± 0.31 | 
90 | CUCCAGCAAUAUUACGAACU | -1.12 ± 0.29 | -2.92 ± 0.33
91 | CUGUAGCAAUAUUACGACGC | -2.79 ± 0.27 | -2.3 ± 0.35
92 | CGGUAGCAAUAUUACGUUAU |  | -2.66 ± 0.25
93 | UCGUAGCAAUAUUACGGAAU | -1.55 ± 0.27 | 
94 | CUGCAGCAAUAUUACGUAGG | -0.512 ± 0.07 | -0.76 ± 0.057
95 | GUUUAGCAAUAUUACGGGGA | -1.41 ± 0.22 | -3.57 ± 0.37
96 | UCUCAGCAAUAUUACGGUUA | -0.239 ± 0.091 | -0.801 ± 0.083
97 | UUCAAGCAAUAUUACGGGGG | -0.739 ± 0.16 | -3.34 ± 0.26
